Measured values: patent US20040241845A1 (UNIVERSIT DE MONTR AL, published 2004)

Key:
[1] = biological target: T1, Staufen/YFP fusion protein (human, UniProt O95793 82-577); assay: BRET in live 293T cells
T1 construct: BRET acceptor, expressed in live 293T cells; also called pCMV-Staufen/YFP; not shown: YFP of pCMV-GFP-Topaz (red-shifted GFP variant of Aequorea victoria GFP); its substitutions and the junction are not pri
T1 sequence: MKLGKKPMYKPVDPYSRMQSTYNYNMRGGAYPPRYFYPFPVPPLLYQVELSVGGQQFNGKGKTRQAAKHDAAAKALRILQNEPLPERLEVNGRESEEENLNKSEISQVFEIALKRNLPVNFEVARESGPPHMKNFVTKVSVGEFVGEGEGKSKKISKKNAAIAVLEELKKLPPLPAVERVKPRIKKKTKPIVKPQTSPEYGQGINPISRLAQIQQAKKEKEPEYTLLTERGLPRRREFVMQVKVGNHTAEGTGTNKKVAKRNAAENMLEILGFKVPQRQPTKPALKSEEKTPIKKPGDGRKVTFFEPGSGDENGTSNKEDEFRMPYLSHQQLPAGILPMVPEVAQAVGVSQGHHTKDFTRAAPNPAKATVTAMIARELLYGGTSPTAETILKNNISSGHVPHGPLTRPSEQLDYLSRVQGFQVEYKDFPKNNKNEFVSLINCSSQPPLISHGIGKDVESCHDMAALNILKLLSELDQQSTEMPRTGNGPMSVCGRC

[2] = biological target: HIV-1 CA (processed form of pr55Gag, CAp24/p25) (HIV-1 (pNL4-3), UniProt P12493 133-363); assay: co-immunoprecipitation with anti-HA
[3] = biological target: T2, HIV-1 pr55Gag (Gag precursor expressed from pNL4-3 proviruses) (HIV-1 (pNL4-3), UniProt P12493 2-500); assay: co-immunoprecipitation with anti-CA, Western with anti-HA
T2 construct: In lysates of transfected 293T cells; The anti-CA antibody also pulls down pr41Gag and CAp24/p25

B1: MA/Rluc (other)
chain: MGARASVLSGGELDRWEKIRLRPGGKKKYKLKHIVWASRELERFAVNPGLLETSEGCRQILGQLQPSLQTGSEELRSLYNTVATLYCVHQRIEIKDTKEALDKIEEEQNKSKKKAQQAAADTGHSNQVSQNY
notes: domain: MA; not shown: Renilla reniformis luciferase (Rluc) of pRluc-N1(h)
B1: no binding [1].

B2: p6/Rluc (other)
chain: LQSRPEPTAPPEESFRSGVETTTPPQKQEPIDKELYPLTSLRSLFGNDPSSQ
notes: domain: p6; not shown: Renilla reniformis luciferase (Rluc) of pRluc-N1(h)
B2: no binding [1].

B3: NC/Rluc (other)
chain: MQRGNFRNQRKIVKCFNCGKEGHTARNCRAPRKKGCWKCGKEGHQMKDCTERQAN
notes: domain: NC; not shown: Renilla reniformis luciferase (Rluc) of pRluc-N1(h)
B3: binds [1].

B4: Staufen-HA (wild-type human Staufen, short isoform, HA-tagged) (other)
chain: MKLGKKPMYKPVDPYSRMQSTYNYNMRGGAYPPRYFYPFPVPPLLYQVELSVGGQQFNGKGKTRQAAKHDAAAKALRILQNEPLPERLEVNGRESEEENLNKSEISQVFEIALKRNLPVNFEVARESGPPHMKNFVTKVSVGEFVGEGEGKSKKISKKNAAIAVLEELKKLPPLPAVERVKPRIKKKTKPIVKPQTSPEYGQGINPISRLAQIQQAKKEKEPEYTLLTERGLPRRREFVMQVKVGNHTAEGTGTNKKVAKRNAAENMLEILGFKVPQRQPTKPALKSEEKTPIKKPGDGRKVTFFEPGSGDENGTSNKEDEFRMPYLSHQQLPAGILPMVPEVAQAVGVSQGHHTKDFTRAAPNPAKATVTAMIARELLYGGTSPTAETILKNNISSGHVPHGPLTRPSEQLDYLSRVQGFQVEYKDFPKNNKNEFVSLINCSSQPPLISHGIGKDVESCHDMAALNILKLLSELDQQSTEMPRTGNGPMSVCGRC
notes: Expressed in 293T cells from the pNL4-3/Staufen-HA chimeric provirus (in the nef reading frame) or from a Staufen-HA expressor (pcDNA3-RSV-hStau-HA); Runs as a 60 kDa band; also called hStau/HA; HA-hStau
B4: no binding [2].

B5: Staufen F135A-HA (full-length Staufen with a point mutation in dsRBD3) (other)
chain: MKLGKKPMYKPVDPYSRMQSTYNYNMRGGAYPPRYFYPFPVPPLLYQVELSVGGQQFNGKGKTRQAAKHDAAAKALRILQNEPLPERLEVNGRESEEENLNKSEISQVFEIALKRNLPVNFEVARESGPPHMKNAVTKVSVGEFVGEGEGKSKKISKKNAAIAVLEELKKLPPLPAVERVKPRIKKKTKPIVKPQTSPEYGQGINPISRLAQIQQAKKEKEPEYTLLTERGLPRRREFVMQVKVGNHTAEGTGTNKKVAKRNAAENMLEILGFKVPQRQPTKPALKSEEKTPIKKPGDGRKVTFFEPGSGDENGTSNKEDEFRMPYLSHQQLPAGILPMVPEVAQAVGVSQGHHTKDFTRAAPNPAKATVTAMIARELLYGGTSPTAETILKNNISSGHVPHGPLTRPSEQLDYLSRVQGFQVEYKDFPKNNKNEFVSLINCSSQPPLISHGIGKDVESCHDMAALNILKLLSELDQQSTEMPRTGNGPMSVCGRC
notes: Expressed from the pNL4-3/StaufenF135A-HA chimeric provirus
B5: no binding [3].

B6: p2-p1/Rluc (other)
chain: AEAMSQVTNSATIMMQRGNFRNQRKIVKCFNCGKEGHTARNCRAPRKKGCWKCGKEGHQMKDCTERQANFLGKIWPSYKGRPGNF
notes: domain: p2-p1; not shown: Renilla reniformis luciferase (Rluc) of pRluc-N1(h)
B6: binds [1].
